Results taken from publication PMC6856157.

Target: V1N, hybrid peptide of the collagen domain (POG)8 and the cell penetrating peptide domain (RRG)2, without the FITC reporter
Assay: circular dichroism; V1N/siRNA complex in Milli-Q water, 90 uM V1N and 5 uM siRNA, equilibrated 30 min at 25 °C or 37 °C; positive peak at 224 nm

stoichiometry N: 3
Substance: V1N, hybrid peptide of the collagen domain (POG)8 and the cell penetrating peptide domain (RRG)2, without the FITC reporter
